# Values quoted from earlier work as cited in article PMC11266353, “Synthesis of a highly thermostable insulin by phenylalanine conjugation at B29 Lysine” (Communications Chemistry, 2024).
# Parameters: method as in Protein J., 2023, 42, 383
# Conditions: ref Protein J., 2023, 42, 383
substance,measurement,value
"Modified insulin: insulin analog reported in Protein J., 2023, 42, 383: tri-acetylated at Gly A1, Phe B1 and Lys B29",Melting temperature,72.5 °C
